Our source for the Fold and Kd values is US20190309093A1 (Y BIOLOGICS, published 2019).

Experiment [1] addresses T1, CD3 on Jurkat luciferase reporter cells (UniProt P07766 23-207).
T1 construct: whole, on cells; also called CD3 positive Jurkat cell line with NFAT luciferase reporter
Description: flow cytometry of Jurkat_NFAT_Luc2P cells, FITC-A; fold over hIgG.

In a further experiment the target is T2, hCD3εγ chains.
T2 construct: copies: 1 + 1
T2 epsilon: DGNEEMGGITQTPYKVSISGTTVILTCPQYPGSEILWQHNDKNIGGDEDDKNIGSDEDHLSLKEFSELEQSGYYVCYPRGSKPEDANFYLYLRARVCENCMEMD
T2 gamma: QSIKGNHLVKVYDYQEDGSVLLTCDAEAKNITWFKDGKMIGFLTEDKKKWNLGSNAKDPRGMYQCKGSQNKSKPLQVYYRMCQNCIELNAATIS
Put plainly: ELISA on hCD3εγ chains, fit value of a flat curve, unit taken from the x axis Antibody [nM]. Background: In an ELISA, binding on a coated surface is turned into a signal by an enzyme label.

For orientation: Kd means the concentration at which binding is half-saturated. Low values mean a tighter complex, high ones a looser complex.

B1: UCHT1 (antibody, V domains shown)
VH: EVQLQQSGPELVKPGPSMKISCKASGYSFTGYTMNWVKQSHGKNLEWMGLINPYKGVSTYNQKFKDKATLTVDKSSSTAYMELLSLTSEDSAVYYCARSGYYGDSDWYFDVWGQGTTLTVFS
VL: DIQMTQTTSSLSASLGDRVTISCRASQDIRNYLNWYQQKPDGTVKLLIYYTSRLHSGVPSKFSGSGSGTDYSLTISNLEQEDIATYFCQQGNTLPWTFAGGTKLEIKR
notes: Bought antibody
The molecule B1 showed a Fold in experiment [1] of 35.

B2: ACE-05 (bispecific antibody)
heavy 1: not shown
heavy 2: not shown
light: QLVLTQPPSVSGAPGQRVTISCTGSSSNIGAGYDVHWYQQLPGAAPKLLIYGDINRPSGVPDRFSGSKSGISASLAITGLQAEDEADYYCQSYDSSLSGGVFGGGTKLTVLRTVAAPSVFIFPPSDEQLKSGTASVVCLLNNFYPREAKVQWKVDNALQSGNSQESVTEQDSKDSTYSLSSTLTLSKADYEKHKVYACEVTHQGLSSPVTKSFNRGEC
notes: The Fab regions are bivalent for PD-L1 and the Fv is monovalent for CD3; also called ALiCE molecule ACE-05
B2 came in with a Kd in the experiment with hCD3εγ chains of 0.035 nM.
